Kd data for seven sequences are collected here from publication PMC10991935.

The first series relates to PsPIWI-RE (Pseudomonas stutzeri DSM 4166). The series can be described thus: fluorescence polarization. The settings on record: 5' phosphate; FP: 20 mM Tris-HCl pH 7.5, 250 mM NaCl, 5 mM MgCl2, 5 nM oligo, 37 C, 30 min; EMSA: 20 mM Tris-HCl pH 8.0, 150 mM NaCl, 2 mM DTT, 5 mM MgCl2, 1 uM oligo, 1-3 uM. In general terms: Polarisation of emitted light reports the rotation of a fluorescent probe.
Take “TGAGGTAGTAGGTTGTATAGT [5'P-DNA (5'T) 21-nt guide]”: the Kd was 24.6 nM.
The same measure, in the same setting: the figure for “UGAGGUAGUAGGUUGUAUAGU [5'P-RNA (5'U) 21-nt guide]” is 64.4 nM.

The same series, now with this note: FP: 20 mM Tris-HCl pH 7.5, 250 mM NaCl, 5 mM MgCl2, 5 nM oligo, 37 C, 30 min; EMSA: 20 mM Tris-HCl pH 8.0, 150 mM NaCl, 2 mM DTT, 5 mM MgCl2, 1 uM oligo, 1-3 uM.
Sequence “AGAGGUAGUAGGUUGUAUAGU [5'OH-RNA (5'A) 21-nt guide]” came in with a Kd of 88.4 nM.
On the same count and under the same terms, the figure for “CGAGGUAGUAGGUUGUAUAGU [5'OH-RNA (5'C) 21-nt guide]” is 152 nM; for “GGAGGUAGUAGGUUGUAUAGU [5'OH-RNA (5'G) 21-nt guide]” it is 86.7 nM; for “TGAGGTAGTAGGTTGTATAGT [5'OH-DNA (5'T) 21-nt guide]” it is 19.7 nM.
“UGAGGUAGUAGGUUGUAUAGU [5'OH-RNA (5'U) 21-nt guide]” came in with a Kd of 86.5 nM.

For orientation: Kd means the concentration at which binding is half-saturated. High values mean lower affinity, low ones higher affinity.
